From paper PMC8376106, “NAD^+ pool depletion as a signal for the Rex regulon involved in Streptococcus agalactiae virulence” (PLoS Pathogens, 2021)
Like-named read-outs stand apart in the source and are kept apart here.

What was measured:
[1] = biological target: T1, GBS Rex (Gbs1167) (Streptococcus agalactiae, UniProt Q8E565); test: isothermal titration calorimetry, one-site fit; assay type: binding
T1 construct: native Rex from pET101-Strex in E. coli TUNER (DE3), no tag used in purification; apo form eluted from 5' AMP-Sepharose; homodimer
Excerpt: isothermal titration calorimetry, one-site fit on GBS Rex (Gbs1167)

[2] = biological target: T2, Rex (Gbs1167) (Streptococcus agalactiae NEM316, UniProt Q8E565 1-212); test: ITC and EMSA; settings: apo Rex in ITC; n = 2.2 +/- 0.2 (one dimer per DNA); EMSA: 20 mM Tris pH 8.0, 1 mM EDTA, 75 mM KCl, 1 mM DTT, 10 ug/ml BSA, 10% glycerol, 30 C, 20 min, 30 nM DNA (promoter fragments). ITC: 100 mM potassium …
T2 sequence: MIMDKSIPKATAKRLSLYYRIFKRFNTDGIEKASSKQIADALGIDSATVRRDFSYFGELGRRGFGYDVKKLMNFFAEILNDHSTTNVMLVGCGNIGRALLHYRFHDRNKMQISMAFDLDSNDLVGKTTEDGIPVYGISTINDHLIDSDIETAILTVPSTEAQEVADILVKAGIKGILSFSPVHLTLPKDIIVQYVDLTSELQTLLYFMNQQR

[3] = biological target: T2, Rex (Gbs1167); test: ITC; settings: NAD+; EMSA: 20 mM Tris pH 8.0, 1 mM EDTA, 75 mM KCl, 1 mM DTT, 10 ug/ml BSA, 10% glycerol, 30 C, 20 min, 30 nM DNA (promoter fragments). ITC: 100 mM potassium …
[4] = biological target: T2, Rex (Gbs1167); test: EMSA; EMSA: 20 mM Tris pH 8.0, 1 mM EDTA, 75 mM KCl, 1 mM DTT, 10 ug/ml BSA, 10% glycerol, 30 C, 20 min, 30 nM DNA (promoter fragments). ITC: 100 mM potassium phosphate pH 7.5, 25 C. Crystals: 25% PEG 1500, MIB buffer pH 5.0, 20 C.; settings: protein: recombinant; tags: none (native, pET101-Strex); chain copies: 2; label: 32P; (only forward strand given)
[5] = biological target: the molecule itself; test: crystal structure
[6] = biological target: T2, Rex (Gbs1167); test: EMSA; same as native ldh operator; EMSA: 20 mM Tris pH 8.0, 1 mM EDTA, 75 mM KCl, 1 mM DTT, 10 ug/ml BSA, 10% glycerol, 30 C, 20 min, 30 nM DNA (promoter fragments). ITC: 100 mM potassium phosphate pH 7.5, 25 C. Crystals: 25% PEG 1500, MIB buffer pH 5.0, 20 C.; settings: protein: recombinant; tags: none (native, pET101-Strex); chain copies: 2; label: 32P; (only forward strand given)
[7] = biological target: T2, Rex (Gbs1167); test: X-ray crystallography (2.4 A); NAD+; Mg2+ ion located; EMSA: 20 mM Tris pH 8.0, 1 mM EDTA, 75 mM KCl, 1 mM DTT, 10 ug/ml BSA, 10% glycerol, 30 C, 20 min, 30 nM DNA (promoter fragments). ITC: 100 mM potassium phosphate pH 7.5, 25 C. Crystals: 25% PEG 1500, MIB buffer pH 5.0, 20 C.; settings: protein: recombinant; tags: none (native, pET101-Strex); chain copies: 2; blunt; self-complementary, 2 strand copies

## Nc1ncnc2c1ncn2[C@@H]1O[C@H](COP(=O)(O)OP(=O)(O)OP(=O)(O)O)[C@@H](O)[C@H]1O [ATP]
[1]; read-out: Ka (M^-1)^a x 10^-6 (converted)
  Kd: 250 µM

## NC(=O)C1=CN([C@@H]2O[C@H](COP(=O)(O)OP(=O)(O)OC[C@H]3O[C@@H](n4cnc5c(N)ncnc54)[C@H](O)[C@@H]3O)[C@@H](O)[C@H]2O)C=CC1 [NADH]
[1]
  Kd: 0.357 µM

## NC(=O)C1=CN([C@@H]2O[C@H](COP(=O)(O)OP(=O)(O)OC[C@H]3O[C@@H](n4cnc5c(N)ncnc54)[C@H](OP(=O)(O)O)[C@@H]3O)[C@@H](O)[C@H]2O)C=CC1 [NADPH]
[1]
  Kd: 143 µM

## NC(=O)c1ccc[n+]([C@@H]2O[C@H](COP(=O)(O)OP(=O)(O)OC[C@H]3O[C@@H](n4cnc5c(N)ncnc54)[C@H](O)[C@@H]3O)[C@@H](O)[C@H]2O)c1 [NAD^+]
[1]
  Kd: 76.9 µM

## ROP-DNA used in ITC (sequence not specified)
[2]
  Kd: 0.03 µM
[3]
  binding signal (fold affinity vs apo Rex): 1.35

B1: ldh operator 28 bp (dsDNA)
DNA 1: TTTGTTTGCAAATTTTTTCACATTTTAT
DNA 2: ATAAAATGTGAAAAAATTTGCAAACAAA
[4]
  binding result: binds

B2: Streptococcus agalactiae (GBS) strain NEM316 redox-sensing transcriptional repressor Rex (Gbs1167) (natural protein, Streptococcus agalactiae strain NEM316)
chain: MIMDKSIPKATAKRLSLYYRIFKRFNTDGIEKASSKQIADALGIDSATVRRDFSYFGELGRRGFGYDVKKLMNFFAEILNDHSTTNVMLVGCGNIGRALLHYRFHDRNKMQISMAFDLDSNDLVGKTTEDGIPVYGISTINDHLIDSDIETAILTVPSTEAQEVADILVKAGIKGILSFSPVHLTLPKDIIVQYVDLTSELQTLLYFMNQQR
notes: also called GBS Rex; native Rex; source: E. coli TUNER (DE3), pET101-Strex, purified (Q-Sepharose, Superdex 75, 5' AMP-Sepharose 4B)
[5]
  stoichiometry N: 2

B3: ldh_m3 (C9T, A10G) (dsDNA)
DNA 1: TTTGTTTGTGAATTTTTTCACATTTTAT
DNA 2: ATAAAATGTGAAAAAATTCACAAACAAA
[6]
  binding result: binds

B4: ROP 22-mer palindrome (dsDNA)
DNA 1: AATTGTGAAATATTTCACAATT
DNA 2: AATTGTGAAATATTTCACAATT
[7]
  binding result: binds

B5: ldh_m2 (C19T, C21T) (dsDNA)
DNA 1: TTTGTTTGCAAATTTTTTTATATTTTAT
DNA 2: ATAAAATATAAAAAAATTTGCAAACAAA
[4]
  binding result: no binding
